In this experiment the target is T1, plasmin (Homo sapiens, UniProt P00747).
T1 construct: thrombin, plasma kallikrein and plasmin were obtained; purchased Haematologic Technologies
Nature of the experiment: Selectivity profile and Ki, amidolytic activity of plasmin. Format: biochemical. Particulars: for inhibition of plasmin: equimolar, plasmin 20 nM. On the procedure:
In each of these experiments, the molar ratio of protease active site to inhibitor was 1:1. The final concentrations of these proteases and their respective substrates were as follows: FXIIa (20 nM)/S-2302 (0.2 mM), FXIa (2.5 nM)/S-2366 (0.2 mM), FXa (10 nM)/S-2222 (1.3 mM), FIXa (200 nM)/Spectrozyme FIXa (1.3 mM), FVIIa (100 nM)/S-2288 (1.3 mM), thrombin (5 nM)/T-1637 (0.2 mM), kallikrein (5 nM)/S-2302 (0.2 mM), plasmin (20 nM)/S-2251 (0.2 mM), tPA (80 nM)/Spectrozyme tPA (0.2 mM), uPA (100 nM)/S-2288 (1.3 mM), APC (10 nM)/Spectrozyme PCa (0.2 mM) and trypsin (5 nM)/S-2222 (0.2 mM). Results shown are means±SD of at least three experiments.
DrKIn-I, with or without heparin, was screened for its inhibitory activity against trypsin and also against serine proteases in the coagulation cascade (FXIIa, FXIa, FXa, FIXa, FVIIa, thrombin and kallikrein) and in the fibrinolytic system (plasmin, tPA and uPA). The amidolytic activities of these proteases were determined in the presence or absence of equimolar concentrations of DrKIn-I using their respective chromogenic substrates.

From patent US9206246B2, “Heparin/heparan sulfate-dependent inhibitors of activated protein C and uses thereof in treating hemophilic disorders” (Academia Sinica, priority 2012, dated 2015) come the findings set out here.

T1 sequence (P00747 581-810 limits assumed): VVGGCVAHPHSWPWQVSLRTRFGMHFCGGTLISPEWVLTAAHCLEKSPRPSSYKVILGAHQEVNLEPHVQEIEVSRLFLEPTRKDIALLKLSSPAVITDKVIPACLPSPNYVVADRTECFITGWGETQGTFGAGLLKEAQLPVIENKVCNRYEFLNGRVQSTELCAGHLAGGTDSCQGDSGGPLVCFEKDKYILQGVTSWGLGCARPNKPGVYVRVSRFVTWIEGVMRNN
T1 sequence (P00747 97-580 limits assumed): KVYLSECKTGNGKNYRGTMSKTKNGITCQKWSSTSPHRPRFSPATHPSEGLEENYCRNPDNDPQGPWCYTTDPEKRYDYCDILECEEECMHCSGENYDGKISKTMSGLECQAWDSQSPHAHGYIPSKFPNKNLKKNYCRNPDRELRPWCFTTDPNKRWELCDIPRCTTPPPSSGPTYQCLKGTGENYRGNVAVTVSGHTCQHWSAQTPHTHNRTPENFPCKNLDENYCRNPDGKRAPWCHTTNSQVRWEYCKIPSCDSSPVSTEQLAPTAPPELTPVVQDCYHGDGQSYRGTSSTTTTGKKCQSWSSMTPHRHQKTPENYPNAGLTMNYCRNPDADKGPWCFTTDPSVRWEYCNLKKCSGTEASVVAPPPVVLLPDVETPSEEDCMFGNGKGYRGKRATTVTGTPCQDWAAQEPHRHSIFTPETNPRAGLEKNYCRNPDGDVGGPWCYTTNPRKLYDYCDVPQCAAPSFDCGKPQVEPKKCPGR

In general, Ki refers to a dissociation constant, usually derived from enzyme kinetics or from competition with a known ligand. Regarding DrKIn-I (CGGNDNNFETRKKCRQTCGAPRKGRPT), the inhibition of plasmin reads like this: (in the absence of heparin) around 20%; (in the presence of heparin (0.1 U/ml)) around 70%. The Ki (in the presence of heparin, read-out: Ki for plasmin inhibition) turned out to be 1.56 ± 0.09 nM.
